US20230002481A1 (Chugai, published 2023)

Target: T1, recombinant human C1r2s2 tetramer (human, UniProt P09871 16-688; P00736 18-705)
T1 construct: Heterotetramer of two C1r and two C1s chains, co-expressed in FreeStyle293-F cells; also called human C1r2s2s
T1 chain 1: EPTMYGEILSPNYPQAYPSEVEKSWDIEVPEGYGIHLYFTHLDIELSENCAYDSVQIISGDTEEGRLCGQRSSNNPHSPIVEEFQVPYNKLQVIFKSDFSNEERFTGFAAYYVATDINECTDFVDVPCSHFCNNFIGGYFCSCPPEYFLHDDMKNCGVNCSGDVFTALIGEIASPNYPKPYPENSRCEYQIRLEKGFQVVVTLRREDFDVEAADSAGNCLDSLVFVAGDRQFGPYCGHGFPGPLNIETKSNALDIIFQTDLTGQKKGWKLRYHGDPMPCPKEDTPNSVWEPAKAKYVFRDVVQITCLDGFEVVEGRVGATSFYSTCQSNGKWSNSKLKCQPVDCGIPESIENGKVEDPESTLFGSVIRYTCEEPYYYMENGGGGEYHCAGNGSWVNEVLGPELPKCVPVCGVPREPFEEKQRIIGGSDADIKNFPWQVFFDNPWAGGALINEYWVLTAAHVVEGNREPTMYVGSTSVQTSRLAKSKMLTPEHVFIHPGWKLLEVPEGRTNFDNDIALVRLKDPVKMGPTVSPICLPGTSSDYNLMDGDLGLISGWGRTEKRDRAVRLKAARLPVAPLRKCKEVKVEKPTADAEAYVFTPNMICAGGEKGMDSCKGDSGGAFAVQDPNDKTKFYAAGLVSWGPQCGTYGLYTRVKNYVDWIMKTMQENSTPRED
T1 chain 2: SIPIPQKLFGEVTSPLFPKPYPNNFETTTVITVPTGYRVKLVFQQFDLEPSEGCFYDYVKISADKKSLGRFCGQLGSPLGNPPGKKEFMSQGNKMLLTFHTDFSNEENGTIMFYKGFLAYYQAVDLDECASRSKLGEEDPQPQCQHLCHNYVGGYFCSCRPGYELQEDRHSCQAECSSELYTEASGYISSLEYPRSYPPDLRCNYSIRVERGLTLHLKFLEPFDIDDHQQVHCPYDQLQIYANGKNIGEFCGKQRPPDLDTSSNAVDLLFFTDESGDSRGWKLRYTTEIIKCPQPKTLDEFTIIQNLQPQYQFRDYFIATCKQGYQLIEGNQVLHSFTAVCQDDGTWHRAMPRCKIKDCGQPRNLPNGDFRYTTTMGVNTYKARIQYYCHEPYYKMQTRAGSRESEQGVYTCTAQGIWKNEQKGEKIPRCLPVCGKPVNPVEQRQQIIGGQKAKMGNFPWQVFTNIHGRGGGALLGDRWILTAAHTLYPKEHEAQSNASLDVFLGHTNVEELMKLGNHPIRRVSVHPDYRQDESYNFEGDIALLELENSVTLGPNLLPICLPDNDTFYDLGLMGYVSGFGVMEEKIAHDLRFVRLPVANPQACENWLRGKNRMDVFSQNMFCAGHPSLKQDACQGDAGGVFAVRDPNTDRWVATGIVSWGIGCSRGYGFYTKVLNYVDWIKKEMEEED
Assay: SPR (Biacore), pH5.8*: dissociation at pH5.8 after association and dissociation at pH7.4, 37 C, Scrubber fit
Procedure: The kinetic parameters of anti-C1s antibodies against recombinant human C1s (as described in PCT/JP2018/042054), human C1r2s2, and cyno C1r2s2 His/Flag (also referred as cyno C1r2s2 in the Table and Figures) were assessed at pH7.4 and pH5.8, at 37 degrees C. using BIACORE (registered trademark) T200 instrument (GE Healthcare) or BIACORE 4000 (GE Healthcare). ProAG (Pierce) was immobilized onto a CM4 sensorchip using amine coupling kit (GE Healthcare) according to the recommended settings by GE Healthcare. Antibodies and analytes were diluted into the respective running buffers, ACES pH7.4 and pH5.8 (20 mM ACES, 150 mM NaCl, 1.2 mM CaCl₂, 1 mg/ml BSA, 1 mg/ml CMD, 0.05% Tween 20, 0.005 w/v % NaN₃). Each antibody was captured onto the sensor surface by ProA/G. Antibody capture levels were typically 100-200 resonance units (RU). Then, recombinant C1s was injected at concentrations of 25 and 50 nM followed by dissociation at pH7.4 and pH5.8. The surface was regenerated using 10 mM Glycine-HCl, pH1.5. Kinetic parameters at neutral pH conditions and acidic conditions were determined by fitting the sensorgrams with 1:1 binding model using BIACORE (registered trademark) T200 Evaluation software, version 2.0 (GE Healthcare) or BIACORE 4000 Evaluation software. The dissociation rate at pH5.8 (after dissociation at pH7.4, indicated as pH5.8* in TABLE 2) was determined by processing and fitting data using Scrubber 2.0 (BioLogic Software) curve fitting software. The association rate (ka), dissociation rate (kd), binding affinity (KD) at pH7.4 and pH5.8 condition, and dissociation rate (kd) at pH5.8* condition of the antibodies are listed in TABLE 2. Some kinetic parameters of COS0098pHv1 in acidic condition were not correctly calculated because of its weak binding response.
Also, to observe the cross-reactivity of anti-C1s antibodies against human C1r2s2 and cyno C1r2s2 (cyno C1r2s2 His/Flag), BIACORE (registered trademark) kinetics analysis was performed.

Binder | koff [s⁻¹]
COS0098pHv1 (antibody, V domains shown, Humanized, optimized pH-dependent variant of COS0098bb) VH: QVQLVQSGAEVKKPGSSVKVSCKASGHTFSKYTVSWIRQPPGKGLEWIGIINTGGSAYPATWAKGRVTITADESTSTAYMELSSLRSEDTAVYYCARGAGDTDYTNLWGQGTLVTVSS VL: DIQMTQSPSSLSASVGDRVTITCQASENIYSALAWYQQKPGQPPKLLIYGASQLESGVPSRFSGSGSGTDFTLTISSLQPEDFATYYCQQYYFTSHTFGQGTKVEIK | 0.107
COS0098bb (antibody, V domains shown, Anti-C1s rabbit antibody, parent of COS0098pHv1; the antibody was captured by ProA/G; also called anti-C1s antibody COS0098bb) VH: QSVEESGGRLVTPGTPLTLTCTVSGFSLTKYTVSWVRQAPGKGLEWIGIINTGGSAYYATWAKGRFTFSKTSTTVDLQITSPTTEDTATYFCARGNGDTDYTNLWGPGTLVTVSS VL: QVLTQTPSSVSEPVGGTVTINCQASENIYSALAWYQQKPGQPPKLLIYGASNLESGVPSRFKGSGSGTQFTLTISDLECADAATYYCQQYYFTSSTFGGGTKVEIK | 0.000909
